Data from US20160193329A1.

Target: Toll-like Receptor 5 (human) (UniProt O60602)
Experiment: cell-based or functional assay

B1: STF2.HA1 (SI) (protein)
chain: AQVINTNSLSLLTQNNLNKSQSALGTAIERLSSGLRINSAKDDAAGQAIANRFTANIKGLTQASRNANDGISIAQTTEGALNEINNNLQRVRELAVQSANSTNSQSDLDSIQAEITQRLNEIDRVSGQTQFNGVKVLAQDNTLTIQVGANDGETIDIDLKQINSQTLGLDSLNVQKAYDVKDTAVTTKAYANNGTTLDVSGLDDAAIKAATGGTNGTASVTGGAVKFDADNNKYFVTIGGFTGADAAKNGDYEVNVATDGTVTLAAGATKTTMPAGATTKTEVQELKDTPAVVSADAKNALIAGGVDATDANGAELVKMSYTDKNGKTIEGGYALKAGDKYYAADYDEATGAIKAKTTSYTAADGTTKTAANQLGGVDGKTEVVTIDGKTYNASKAAGHDFKAQPELAEAAAKTTENPLQKIDAALAQVDALRSDLGAVQNRFNSAITNLGNTVNNLSEARSRIEDSDYATEVSNMSRAQILQQAGTSVLAQANQVPQNVLSLLAKGIAPLQLGNCSVAGWILGNPECELLISRESWSYIVEKPNPENGTCYPGHFADYEELREQLSSVSSFERFEIFPKESSWPNHTTTGVSASCSHNGESSFYKNLLWLTGKNGLYPNLSKSYANNKEKEVLVLWGVHHPPNIGDQRALYHKENAYVSVVSSHYSRKFTPEIAKRPKVRDQEGRINYYWTLLEPGDTIIFEANGNLIAPRYAFALSRGFGSGIINS
  IL-8, Mean Result (ng/nL), HEK 293 cells, lot 1 (reference), well 1: 635 ng/nL
  IL-8, Mean Result (ng/nL), HEK 293 cells, lot 1 (reference), well 2: 797
  IL-8, Mean Result (ng/nL), HEK 293 cells, lot 1 (reference), well 3: 1070
  IL-8, Mean Result (ng/nL), HEK 293 cells, lot 1 (reference), well 4: 1230
  IL-8, Mean Result (ng/nL), HEK 293 cells, lot 1 (reference), well 5: 1360
  IL-8, Mean Result (ng/nL), HEK 293 cells, lot 1 (reference), well 6: 1540
  IL-8, Mean Result (ng/nL), HEK 293 cells, lot 2, well 1: 1460 ng/nL
  IL-8, Mean Result (ng/nL), HEK 293 cells, lot 2, well 2: 1590
  IL-8, Mean Result (ng/nL), HEK 293 cells, lot 2, well 3: 1610
  IL-8, Mean Result (ng/nL), HEK 293 cells, lot 2, well 4: 1300
  IL-8, Mean Result (ng/nL), HEK 293 cells, lot 2, well 5: 1380
  IL-8, Mean Result (ng/nL), HEK 293 cells, lot 2, well 6: 1090
  IL-8, Mean of all wells, HEK 293 cells, lot 1 (reference): 1110
  IL-8, Mean of all wells, HEK 293 cells, lot 2: 1410
  T/C ratio (IL-8 of lot 2 against the reference lot 1 at about 278 ng/ml): 1.3
